Source: patent publication US20250277003A1

Legend:
[1] = molecular target: SARS-CoV-2 RBD glycan-masked mutant GM14 (SARS-CoV-2) (UniProt P0DTC2); experiment: ELISA, AUC relative to RBD WT
[2] = molecular target: SARS-CoV-2 RBD glycan-masked mutant GM9 (SARS-CoV-2) (UniProt P0DTC2); experiment: ELISA, AUC relative to RBD WT

Substance | %AUC [1] [%] | %AUC [2] [%]
mAb C002 (antibody) | 10.2 | 51.3
mAb CB6 (antibody) | 7.8 | 7.2
mAb CR3022 (antibody) | 72.9 | 120
mAb EY6A (antibody) | 94.5 | 115
mAb S309 (antibody) | 83.4 | 114
